Results: patent publication US11142752B2, “Pullulanase mutant” (Jiangnan University, priority 2018, dated 2021)
Where a chain is given by its changes, count along the chain named. In names and notes the source's numbering stands. Several values for one entry are separate records, joined by “and”; a condition that tells them apart may be missing. Identical values can stand only once.

B1: [Brevibacterium] halotolerans Wild enzyme: wild pullulanase of [Brevibacterium] halotolerans (OEC77647.1, SEQ ID NO: 23) (protein)
chain: MVSIQRSFEAYADEMNIITVLIPADQKDTFTPPFQLETDTAEIPLTVSQEWQIEGKCKYVCVAEQPVTFGKTHHVKASGGGKTDLQIGAVVRTDAFDAAFYYDGELGAVYTSDYTEFKVWAPAATSAAVKLSHPEKSGHTLQMTRMENGVYAVTVAGDLHGYEYVYRICNNLEWTETVDPYAKAVTVNGEKGVVLRPDQANSAPSLAPFSDPVDAIIYEMHIRDFSIHENSGMKNKGKYSALAETDTKTKNGSSTGLSYLKELGVTHIELLPLNDYAGVDEENPLAAYNWGYNPLHFFAPEGSYASNPHDPQTRNTEVKQMIHTLQQHGLRVILDVVYNHVYQREHSPFEKTVPGYFFRHDQFGMPSNGTGVGNDIASERRMARKFITDCVMYWLKEYDVDGFRFDLLGILDIETVLHMKEKASEVKPGILLFGEGWDLATPLPPEQKATLANASKMPGVGFFNDSFRDAVKGNTFHIAAAGFALGNGEQTETVMRGIAGSSGWKETAPLVSAPSQSINYVESHDNHTFWDKMSLALPQESESRKRSRQKLASAIILLAQGVPFIHSGQEFFRTKQGVENSYQSSDSINQLDWSRRETFKQDVDYVRRLISLRKAHPAFRLTSSADIQRCLECLALKEHLIVYRLFNLGAIDEWEEIIVIHHASPDSVTWQLPKDKAYRLLCDTDGFRADPGEIKKAVAVNGIGTVILF
modifications: bacterial
B2: Mutant F476G: Bacillus subtilis str. 168 pullulanase with phenylalanine at position 476 mutated into glycine (protein, UniProt C0SPA0 1-718, looked up, variant F476G)
Pullulanase: MVSIRRSFEAYVDDMNIITVLIPAEQKEIMTPPFRLETEITDFPLAVREEYSLEAKYKYVCVSDHPVTFGKIHCVRASSGHKTDLQIGAVIRTAAFDDEFYYDGELGAVYTADHTVFKVWAPAATSAAVKLSHPNKSGRTFQMTRLEKGVYAVTVTGDLHGYEYLFCICNNSEWMETVDQYAKAVTVNGEKGVVLRPDQMKWTAPLKPFSHPVDAVIYETHLRDFSIHENSGMINKGKYLALTETDTQTANGSSSGLAYVKELGVTHVELLPVNDFAGVDEEKPLDAYNWGYNPLHFFAPEGSYASNPHDPQTRKTELKQMINTLHQHGLRVILDVVFNHVYKRENSPFEKTVPGYFFRHDECGMPSNGTGVGNDIASERRMARKFIADCVVYWLEEYNVDGFRFDLLGILDIDTVLYMKEKATKAKPGILLFGEGWDLATPLPHEQKAALANAPRMPGIGFFNDMFRDAVKGNTGHLKATGFALGNGESAQAVMHGIAGSSGWKALAPIVPEPSQSINYVESHDNHTFWDKMSFALPQENDSRKRSRQRLAAAIILLAQGVPFIHSGQEFFRTKQGVENSYQSSDSINQLDWDRRETFKEDVHYIRRLISLRKAHPAFRLRSAADIQRHLECLTLKEHLIAYRLYDLDEVDEWKDIIVIHHASPDSVEWRLPNDIPYRLLCDPSGFQEDPTEIKKTVAVNGIGTVILYLASDLKSFA
B3: Mutant F476M: Bacillus subtilis str. 168 pullulanase mutated at position 476 (F to M) (protein, UniProt C0SPA0 1-718, looked up, variant F476M)
Pullulanase: B2 Pullulanase with G476M
B4: Mutant F476D: Bacillus subtilis str. 168 pullulanase with phenylalanine at position 476 mutated into aspartic acid (protein, UniProt C0SPA0 1-718, looked up, variant F476D)
Pullulanase: B2 Pullulanase with G476D
B5: Mutant F476V: Bacillus subtilis str. 168 pullulanase mutated at position 476 (F to V) (protein, UniProt C0SPA0 1-718, looked up, variant F476V)
Pullulanase: B2 Pullulanase with G476V
B6: Mutant F476A: Bacillus subtilis str. 168 pullulanase mutated at position 476 (F to A) (protein, UniProt C0SPA0 1-718, looked up, variant F476A)
Pullulanase: B2 Pullulanase with G476A
B7: Mutant F476I: Bacillus subtilis str. 168 pullulanase mutated at position 476 (F to I) (protein, UniProt C0SPA0 1-718, looked up, variant F476I)
Pullulanase: B2 Pullulanase with G476I
B8: Mutant F476C: Bacillus subtilis str. 168 pullulanase mutated at position 476 (F to C) (protein, UniProt C0SPA0 1-718, looked up, variant F476C)
Pullulanase: B2 Pullulanase with G476C
B9: Wild enzyme: wild type pullulanase derived from Bacillus subtilis str. 168 (PDB:2E8Z, NCBI CAB14971.2, SEQ ID NO:2) (protein, listed as Bacillus subtilis)
chain: B2 Pullulanase with G476F

Experiments:
[1] = system: pullulanase of [Brevibacterium] halotolerans; assay: Inhibitory effect of cyclodextrin on pullulanase enzyme activity (DNS method, pullulan substrate); assay type: biochemical
From the text: (§1) 2. Measurement of Enzyme Activity of the Pullulanase:
(§2) A 3,5-dinitrosalicylic acid (DNS) method is adopted. The pullulanase catalyzes the hydrolysis of pullulan to produce reducing sugar under certain conditions, 3,5-dinitrosalicylic acid and the reducing sugar are reduced under thermal conditions to produce a brown-red amino complex, the color depth is directly proportional to the amount of the reducing sugar within a certain range, and the measurement can be performed at the wavelength of 540 nm so as to calculate the enzyme activity. Enzyme activity unit definition: the amount of the enzyme that catalyzes the production of the reducing sugar equivalent to 1 μmol of glucose reducing power per minute is defined as one activity unit.
(§3) 3. Measurement of the Enzyme Activity Comprises the Following Steps:
(§4) A. preheating: putting 1 mL of a 1% pullulan solution of which the pH value is 6.0 and 0.1 mL of a buffer solution of which the pH value is 6.0 in a centrifuge tube, and performing thermal insulation for 10 min on a water bath of 40° C.;
(§5) B. reaction: adding 0.1 mL (10 U) of an enzyme solution, performing shaking and mixing uniformly, performing accurate timing for 30 min, adding 1.5 mL of DNS for stopping reaction, performing treatment in a boiling water bath for 10 min, and performing instant cooling; and
(§6) C. measurement: measuring the light absorption value under the condition of 540 nm, and calculating the activity.
(§7) Reduction of the Inhibitory Effect of Enzyme Activity Characterization:
(§8) A. preheating: putting 1 mL of the 1% pullulan solution of which the pH value is 6.0 and 0.1 mL of 10 mM cyclodextrin in the centrifuge tube, and performing thermal insulation for 10 min on the water bath of 40° C.;
B. reaction: adding 0.1 mL (10 U) of the enzyme solution, performing shaking and mixing uniformly, performing accurate timing for 30 min, adding 1.5 mL of DNS for stopping reaction, performing treatment in the boiling water bath for 10 min, and performing instant cooling; and
On the basis, the phenylalanine at the position 481 of the Geobacillus stearothermophilus, the phenylalanine at the position 478 of the [Brevibacterium] halotolerans and the phenylalanine at the position 476 of the […] are mutated, obtained mutants and the mutation effects are shown in the table below. The key amino acid site is applicable to the pullulanase from different sources.

[2] = system: pullulanase derived from Bacillus subtilis str. 168; assay: as above; assay type: biochemical; conditions: for Reduction rate of specific enzyme activity in existence of α-CD / Reduction rate of specific enzyme activity in existence of β-CD / Reduction rate of specific enzyme activity in existence of γ-CD: Bacillus subtilis str. 168 pullulanase, 1% pullulan pH 6.0, 40° C., 30 min; for Reduction rate of specific enzyme activity in existence of α-CD: inhibitor α-CD (0.1 mL of 10 mM cyclodextrin); for Reduction rate of specific enzyme activity in existence of β-CD: inhibitor β-CD (0.1 mL of 10 mM cyclodextrin); for Reduction rate of specific enzyme activity in existence of γ-CD: inhibitor γ-CD (0.1 mL of 10 mM cyclodextrin); for Inhibitory effects of three cyclodextrins on the pullulanase mutant compared with the wild type pullulanase: α-CD, β-CD and γ-CD, comparison of mutant with wild type pure enzyme
From the text: as §1, §2, §3, §4, §5, §6, §7, §8
B. reaction: adding 0.1 mL (10 U) of the enzyme solution, performing shaking and mixing uniformly, performing accurate timing for 30 min, adding 1.5 mL of DNS for stopping reaction, performing treatment in the boiling water bath for 10 min, and performing instant cooling; and […]

[3] = listed as wild type pure enzyme

| Molecule | Reduction rate of specific enzyme activity in existence of α-CD ([1]; inhibitor α-CD) [%] | Reduction rate of specific enzyme activity in existence of β-CD ([1]; inhibitor β-CD) [%] | Reduction rate of specific enzyme activity in existence of γ-CD ([1]; inhibitor γ-CD) [%] | Reduction rate of specific enzyme activity in existence of α-CD [2] [%] | Reduction rate of specific enzyme activity in existence of β-CD [2] [%] | Reduction rate of specific enzyme activity in existence of γ-CD [2] [%] | Inhibitory effects of three cyclodextrins on the pullulanase mutant compared with the wild type pullulanase [2] | Reduction rate of specific enzyme activity in existence of α-CD [2, 3] [%] | Reduction rate of specific enzyme activity in existence of β-CD [2, 3] [%] | Reduction rate of specific enzyme activity in existence of γ-CD [2, 3] |
| --- | --- | --- | --- | --- | --- | --- | --- | --- | --- | --- |
| B1 | 15.3 | 47.2 | 6.1 | – | – | – | – | – | – | – |
| B2 | – | – | – | 10.6 | 17.1 | 17.6 | significantly lower than that of the wild type pullulanase | – | – | – |
| B3 | – | – | – | 6.5 | 20.6 | 16.1 | – | – | – | – |
| B4 | – | – | – | 5.6 | 11.1 | 11.0 | significantly lower than that of the wild type pullulanase | – | – | – |
| B5 | – | – | – | 7.2 | 16.7 | 12.3 | – | – | – | – |
| B6 | – | – | – | 3.5 | 5.6 | 5.8 | – | – | – | – |
| B7 | – | – | – | 8.2 | 21.7 | 15.2 | – | – | – | – |
| B8 | – | – | – | 4.3 | 17.2 | 5.6 | – | – | – | – |
| B9 | – | – | – | 14.3 | 42.8 | 17.1 | – | 14.3 | 42.8 | 7.1% and 17.1% |
